B1: fulvous fruit bat ACE2 ectodomain fused with mouse Fc (Fc fusion)
chain: QSTPEELAKTFLEKFNTEAEDLFYQSSLASWDFNTNIIDENVQKMSKARATWSAFYDEQSKLAKTYQLDEIQDPELKLQLRILQQSGSSTLSADKTKRLNDILNTMSTIYSTGKICQPNNSQECLLLEPGLDDIMENSKDYSQRLWAWESWRSEVGKQLRPYYEEYVVLKNEMARGENYEDYGDYWRGDYETEGINGSAYTRDQLIEDVDRIFTEIKPLYEQLHAYVRTKLMDAYPSHISPTGCLPAHLLGDMWGRFWINLYPLTVPFEQKPNIDVTDEMVNQNWNAKRIFKEAEKFFVSLGLPNMTETFWEKSVLTEPDNDQKVACHPTAWDLGKGDFRIIMCTKVKMEDFLTAHHEMGHIQYYMAYATQPYLLRDGANEGFHEAVGEVISLSVATPNHLKNMGLLPPDFYEDNETEINFLLKQALNVVGTLPFTYMLEKWRWMVFKGEIPKEQWMEKWWEMKRELVGVVEPLPHDETYCDPASLFHVANDYSFIRYYTRTIFEFQFLEALCQIAQHEGPLYKCDIANSTEAGKKLHQMLSLGKSKPWTLALESIAGTKNMDVRPLLNYFEPLFTWLKEKNRNSFVGWSTDWSPYSGQSIKVRISLKAALGEKAYEWNDNEMYLFKSSIAYSLREYFLKVKNLTIPFGEEDVWVSDLKPRISFNFFVTSPQNVSEFIPRTEVEGAIRMSRSRINDAFRLDDDTLEFLGIEPTLGTPYQPPVT
B2: horse ACE2 ectodomain fused with mouse Fc (Fc fusion)
chain: QSTTEDLAKTFLEKFNSEAEELSHQSSLASWSYNTNITDENVQKMNEAGARWSAFYEEQCKLAKTYPLEEIQNLTVKRQLQALQQSGSSVLSADKSKLNEILNTMSTIYSTGKVCNPSNPQECLLLEPGLDAIMENSKDYNQRLWAWEGWRSEVGKQLRPLYEEYVVLKNEMARANNYEDYGDYWRGDYEAEGPSGYDYSRDQLIEDVERTFAEIKPLYEHLHAYVRAKLMDTYPSHINPTGCLPAHLLGDMWGRFWTNLYSLTVPFGQKPNIDVTDAMVDQSWDAKRIFEEAEKFFVSVGLPNMTQGFWENSMLTEPGDGRKVVCHPTAWDLGKGDFRIKMCTKVTMDDFLTAHHEMGHIQYDMAYAVQPYLLRNGANEGFHEAVGEIMSLSAATPNHLKAIGLLPPDFYEDSETEINFLLKQALTIVGTLPFTYMLEKWRWMVFKGEIPKEEWMKKWWEMKREIVGVVEPVPHDETYCDPAALFHVANDYSFIRYYTRTIYQFQFQEALCQTAKHEGPLHKCDISNSTEAGQKLLQMLSLGKSEPWTLALERIVGVKNMDVRPLLNYFEPLFTWLKDQNKNSFVGWSTNWSPYADQSIKVRISLKSALGEKSYEWNDNEMYLFQSSVAYAMRVYFLKAKNQTILFGEEDVWVSDLKPRISFNFFVTSPKNASDIIPRTDVEEAIRMSRSRINDAFRLDDNTLEFLGIQPTLGPPYQPPVT
B3: alpaca ACE2 ectodomain fused with mouse Fc (Fc fusion)
chain: QSTTEELAKTFLKEFNHEAEDRSYQSSLASWNYNTNITDENVQKMNDARAKWSTFYEEKSKAAKIYPLEEIENVTLKRQLQALQQSGASALSADKSKRLTTILNTMSSIYSSGEVCDPNNPQECLVLEPGLDDIMENSKDYNQRLWAWEGWRAEVGKQLRPLYEEYVVLKNEMARANNYEDYGDYWRGDYEVMWAGDYDYSRDQLMGDVEHTFAEIKPLYEHLHAYVRAKLMDAYPSRISPTGCLPAHLLGDMWGRFWTNLYSLTVPFGQKPNIDVTEAMENQSWDAKRIFKEAEKFFVSIGLPNMTQGFWDNSMLTEPGDGRKVVCHPTAWDLGKGDFRIKMCTKVTMDDFLTAHHEMGHIQYDMAYAIQPFLLRNGANEGFHEAVGEIMSLSAATPHYLKALGLLPADFYEDSETEINFLLKQALTIVGTLPFTYMLEKWRWMVFKGEIPKEQWMQKWWEMKREIVGVVEPLPHDETYCDPACLFHVAEDYSFIRYYTRTIYQFQFHEALCQIAKHEGPLYKCDISNSTEAGQKLLQMLSLGKSEPWTLALEALVGVKTMDVKPLLNYFEPLLTWLKDQNRNSFVGWSTDWTPYTDQSIKVRISLKSALGDKAYEWNDNEMYLFRSSLAYAMRNYFLTVQKQTILFGVEDVWVSDLKPRISFSFFVTSPKNVSDIIPRTEVEKAIRMSRSRINDAFRLDDNSLEFLGIQPTLGPPYEPP
B4: cat ACE2 ectodomain fused with mouse Fc (Fc fusion)
chain: QSTTEELAKTFLEKFNHEAEELSYQSSLASWNYNTNITDENVQKMNEAGAKWSAFYEEQSKLAKTYPLAEIHNTTVKRQLQALQQSGSSVLSADKSQRLNTILNAMSTIYSTGKACNPNNPQECLLLEPGLDDIMENSKDYNERLWAWEGWRAEVGKQLRPLYEEYVALKNEMARANNYEDYGDYWRGDYEEEWTDGYNYSRSQLIKDVEHTFTQIKPLYQHLHAYVRAKLMDTYPSRISPTGCLPAHLLGDMWGRFWTNLYPLTVPFGQKPNIDVTDAMVNQSWDARRIFKEAEKFFVSVGLPNMTQGFWENSMLTEPGDSRKVVCHPTAWDLGKGDFRIKMCTKVTMDDFLTAHHEMGHIQYDMAYAVQPFLLRNGANEGFHEAVGEIMSLSAATPNHLKTIGLLSPGFSEDSETEINFLLKQALTIVGTLPFTYMLEKWRWMVFKGEIPKEQWMQKWWEMKREIVGVVEPVPHDETYCDPASLFHVANDYSFIRYYTRTIYQFQFQEALCRIAKHEGPLHKCDISNSSEAGKKLLQMLTLGKSKPWTLALEHVVGEKKMNVTPLLKYFEPLFTWLKEQNRNSFVGWNTDWRPYADQSIKVRISLKSALGDEAYEWNDNEMYLFRSSVAYAMREYFSKVKNQTIPFVEDNVWVSNLKPRISFNFFVTASKNVSDVIPRSEVEEAIRMSRSRINDAFRLDDNSLEFLGIQPTLSPPYQPPVT
B5: wild Bactrian camel ACE2 ectodomain fused with mouse Fc (Fc fusion)
chain: QSTTEELAKTFLEEFNHEAEDLSYQSSLASWNYNTNITDENVQKMNDARAKWSTFYEEKSKTAKTYPLEEIQNVTLKRQLQALQQSGASALSADKSKRLTTVLSTMSTIYSSGEVCDPNNPQECLVLEPGLDDIMENSKDYNQRLWAWEGWRAEVGKQLRPLYEEYVVLKNEMARANNYEDYGDYWRGDYEVMWAGDYDYSRDQLMGDVEHTFAEIKPLYEHLHAYVRAKLMDVYPSHISPTGCLPAHLLGDMWGRFWTNLYSLTVPFGQKPNIDVTEAMENQSWDAKRIFKEAEKFFVSIGLPNMTQGFWDNSMLTEPGDGRKVVCHPTAWDLGKGDFRIKMCTKVTMDDFLTAHHEMGHIQYDMAYAIQPFLLRNGANEGFHEAVGEIMSLSAATPHYLKALGLLPADFYEDSETEINFLLKQALTIVGTLPFTYMLEKWRWMVFKGEIPKEQWMQKWWEMKREIVGVVEPLPHDETYCDPACLFHVAEDYSFIRYYTRTIYQFQFHEALCQIAKHEGPLYKCDISNSTEAGQKLLQMLSLGKSEPWTLALEGLVGVKTMDVKPLLNYFEPLLTWLKDQNRNSFVGWSTDWTPYTDQSIKVRISLKSALGDKAYEWNDNEMYLFQSSLAYAMRKYFLKVQNQTILFGVEDVWVSDLKPRISFSFFVTSPKNVSDIIPRTEVEEAIRMSRSRINDAFRLDDNSLEFLGIQPTLGPPYEPPVT
B6: dog ACE2 ectodomain fused with mouse Fc (Fc fusion)
chain: QSTEDLVKTFLEKFNYEAEELSYQSSLASWNYNINITDENVQKMNNAGAKWSAFYEEQSKLAKTYPLEEIQDSTVKRQLRALQHSGSSVLSADKNQRLNTILNSMSTVYSTGKACNPSNPQECLLLEPGLDDIMENSKDYNERLWAWEGWRSEVGKQLRPLYEEYVALKNEMARANNYEDYGDYWRGDYEEEWENGYNYSRNQLIDDVELTFTQIMPLYQHLHAYVRTKLMDTYPSYISPTGCLPAHLLGDMWGRFWTNLYPLTVPFGQKPNIDVTNAMVNQSWDARKIFKEAEKFFVSVGLPNMTQEFWGNSMLTEPSDSRKVVCHPTAWDLGKGDFRIKMCTKVTMDDFLTAHHEMGHIQYDMAYAAQPFLLRNGANEGFHEAVGEIMSLSAATPNHLKNIGLLPPSFFEDSETEINFLLKQALTIVGTLPFTYMLEKWRWMVFKGEIPKDQWMKTWWEMKRNIVGVVEPVPHDETYCDPASLFHVANDYSFIRYYTRTIYQFQFQEALCQIAKHEGPLHKCDISNSSEAGQKLLEMLKLGKSKPWTYALEIVVGAKNMDVRPLLNYFEPLFTWLKEQNRNSFVGWNTDWSPYADQSIKVRISLKSALGEKAYEWNNNEMYLFRSSIAYAMRQYFSEVKNQTIPFVEDNVWVSDLKPRISFNFSVTSPGNVSDIIPRTEVEEAIRMYRSRINDVFRLDDNSLEFLGIQPTPGPPYEPPVT

What follows are binders tested against SARS-CoV receptor binding domain (RBD), His-tagged (SARS-CoV, UniProt P59594 306-527) (assay: SPR).

Binder	Kd
B1	412 nM
B2	141 nM
B3	54.9 nM
B4	69.9 nM
B5	69.1 nM
B6	20 nM

The binders below were run against SARS-CoV-2 receptor binding domain (RBD), His-tagged (SARS-CoV-2, UniProt P0DTC2 319-541) (assay: SPR).

Binder	Kd
B1	1130 nM
B2	133 nM
B4	85.7 nM
B5	272 nM
B6	98.9 nM

From PMC7526519 (2020)
